Literature values in PMC3931689.
pKi: −log10 of the molar value.

Target: Protein phosphatase 1 (Mus musculus) (UniProt P62137)
UniProt P62137, sequence (P62137 2-330): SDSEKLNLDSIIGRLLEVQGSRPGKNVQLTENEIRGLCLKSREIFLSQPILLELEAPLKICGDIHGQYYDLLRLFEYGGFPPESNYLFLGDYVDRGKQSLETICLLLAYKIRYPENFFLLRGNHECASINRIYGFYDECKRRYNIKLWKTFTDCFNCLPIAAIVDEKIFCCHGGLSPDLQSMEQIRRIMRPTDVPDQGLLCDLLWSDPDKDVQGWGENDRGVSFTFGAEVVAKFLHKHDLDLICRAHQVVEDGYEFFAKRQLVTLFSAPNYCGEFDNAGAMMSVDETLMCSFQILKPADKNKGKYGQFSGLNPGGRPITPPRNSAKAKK

With Inhibitor-1 (from UniProt Q9ERT9) as the substance, how does the pKi read?
The pKi was 9.00.
